# Test results published in patent US9675625B2, “Medicament comprising recombinant antibody against chemokine receptor CCR4” (KYOWA HAKKO KIRIN CO., LTD., priority 2003, dated 2017).
# B1: KM 2760: anti-CCR4 human chimeric antibody KM 2760 (FERM BP-7054, WO 01/64754) (antibody, V domains shown)
# VH: EVQLVESGGDLMKPGGSLKISCAASGFIFSNYGMSWVRQTPDMRLEWVATISSASTYSYYPDSVKGRFTISRDNAENSLYLQMNSLRSEDTGIYYCGRHSDGNFAFGYWGRGTLVTVSA
# VL: DVLMTQTPLSLPVSLGDQASISCRSSRNIVHINGDTYLEWYLQRPGQSPKLLIYKVSNRFSGVPDRFSGSGSGTDFTLKISRVEAEDLGVYYCFQGSLLPWTFGGGTRLEIRR
# Columns and labels:
# CCR4/EL4 cells [1] = assay: antitumor effect of KM 2760 and G-CSF in combination, CCR4/EL4 cells grafted into ventral skin of C57BL/6 mice; format: in vivo, C57BL/6 mouse
# Protocol: CCR4/EL4 cells (WO 01/64754) were suspended, in RPMI 1640 medium (Gibco BRL) at a concentration of 1×10^6 cells/mL, and 100 μL of the suspension was grafted into the right ventral skin of C57BL/6 mice (Nippon Crea, male, 8 weeks old). After, mice were grouped into A to D, each of the agents A to D were administered to each mouse. Incidentally, the day on which the tumor was grafted was defined as Day 0.
# B. Group of administering KM 2760 alone: 100 μg of KM2760 was intravenously administered per mouse on Day 0 and Day 4.
# C. Group of administering G-CSF alone: 10 μg of G-CSF (Neuup Injection 100, manufactured by Kyowa Hakko Kogyo Co., Ltd.) was subcutaneously administered per mouse once a day for 10 days from 4 days before the tumor grafting (hereinafter referred to as Day-4) to Day 5.
# The experiment was conducted with group A consisting of 10 mice and groups B, C and D each consisting of 7 mice. […] Each of the diluent was administered at 100 μL. A diameter of a tumor was measured with calipers chronologically from Day 0 of each group. A tumor volume was calculated using formula 2 in Example 2.
# Since the tumor death of the mouse was started in group A from Day 17 on, the evaluation of the tumor volume was finished on Day 14.
# The antitumor effect (T/C value) in each group was evaluated by calculation using the following formula 3 for comparison between the average value of the tumor volume in group A and the average values of the tumor volume in each group on the final evaluation day (Day 14). (T/C value)=(average value of tumor volume in each group on Day 14)/average value of tumor volume in group A on Day 14) (Formula 3)
# CCRF-CEM cells = assay: antitumor effect of KM 2760 and cyclophosphamide in combination, CCRF-CEM cells grafted in nude mouse; format: in vivo, Balb/c nude mouse; conditions: Day 4; KM 2760 800 μg per mouse Day 0 and Day 4; CPA 65 mg/kg Day 0; tail vein
# Protocol: CCRF-CEM cells (human T cell leukemia cell line) were suspended in RPMI 1640 medium (Gibco BRL) at a concentration of 2×10^8 cells/mL, and 100 μL of the suspension was grafted intradermally in the right flank of Balb/c nude mice (Nippon Crea, male). On Day 18 after the cell grafting, a diameter of a tumor was measured with calipers, and a tumor volume was calculated using formula 2 in Example 2.
# Individuals having the tumor volume within the range of 116 to 349 mm^3 (on average 219 mm^3) were selected, and grouped such that the average tumor volume to be almost the same. Each of the following agent A to D was administered to the mice. Incidentally, the grouping day was defined as Day 0.
# The experiment was conducted with groups each consisting of five mice. Each of the agents was diluted with a physiological saline (Otsuka Seiyaku), and the diluent was administered from the tail vein. On Day 4, the tumor volume was measured. The antitumor effect was evaluated by comparing an average values of a tumor volume change (V/V0) on each measurement day when the tumor volume on Day 0 in each group was defined as V0.
# CCR4/EL4 cells [2] = assay: in vitro cytotoxic activity (ADCC) of KM 2760 with cytokine-stimulated effector cells, LDH release; format: cell-based, mouse; conditions: KM 2760 1 or 100 ng/mL, effector:target 15:1, 37° C. 4 hours, no cytokine, FIG. 1
# Protocol: An effect of using anti-CCR4 human chimeric antibody KM 2760 (FERM BP-7054, WO 01/64754) and a cytokine in combination in an in vitro cytotoxic activity was measured by the following method.
# A vein blood (50 mL) was collected from a healthy person, 0.5 mL of heparin sodium (manufactured by Shimizu Seiyaku K.K.) was added, and they were gently mixed. A mononuclear cell layer was separated from using a MONO-POLY separation solution (manufactured by Dainippon Pharmaceutical Co., Ltd.) according to the attached manual. […]
# The target cell suspension (50 μL) prepared in the above (c) was added to each well of a 96-well U-shaped bottom plate containing the effector cells stimulated with the cytokine in the above (b) such that the concentration became 1×10^4 cells/well. […] After the reaction, the plate was subjected to centrifugation, and a lactic acid dehydrogenase (hereinafter referred to as LDH) activity in the supernatant was measured by obtaining an absorbance data with CytoTox96 Non-Radioactive Cytotoxic activity Assay (manufactured by Promega) according to the attached manual. […] Cytotoxic activity (%)=[(absorbance of a specimen)−(absorbance of effector cell spontaneous release)−(absorbance of target cell spontaneous release)]/[(absorbance of target cell total release)−(absorbance of target cell spontaneous release)]×100 (Formula 1)
molecule,measurement,setting,value
B1,T/C value (average tumor volume of group / group A),"CCR4/EL4 cells [1]; Day 14, KM 2760 100 μg per mouse i.v. Day 0 and Day 4, G-CSF 10 μg per mouse s.c. once a day Day-4 to Day 5",0.48
same,antitumor effect compared to untreated group A (tumor volume),"CCR4/EL4 cells [1]; FIG. 6, up to Day 14",low
same,T/C (V/V0 of group divided by V/V0 of negative control group),CCRF-CEM cells,0.80
same,cytotoxic activity,CCR4/EL4 cells [2],increased in a concentration-dependent manner
